Experimental findings from article PMC3949604 are described below.

This series deals with AhR (baculovirus);Arnt (baculovirus) (human;human, UniProt P35869;P27540 1-848;1-789, |). Briefly: EMSA.
Chain of AhR (baculovirus);Arnt (baculovirus) (P35869 whole entry, chain 1 of 2): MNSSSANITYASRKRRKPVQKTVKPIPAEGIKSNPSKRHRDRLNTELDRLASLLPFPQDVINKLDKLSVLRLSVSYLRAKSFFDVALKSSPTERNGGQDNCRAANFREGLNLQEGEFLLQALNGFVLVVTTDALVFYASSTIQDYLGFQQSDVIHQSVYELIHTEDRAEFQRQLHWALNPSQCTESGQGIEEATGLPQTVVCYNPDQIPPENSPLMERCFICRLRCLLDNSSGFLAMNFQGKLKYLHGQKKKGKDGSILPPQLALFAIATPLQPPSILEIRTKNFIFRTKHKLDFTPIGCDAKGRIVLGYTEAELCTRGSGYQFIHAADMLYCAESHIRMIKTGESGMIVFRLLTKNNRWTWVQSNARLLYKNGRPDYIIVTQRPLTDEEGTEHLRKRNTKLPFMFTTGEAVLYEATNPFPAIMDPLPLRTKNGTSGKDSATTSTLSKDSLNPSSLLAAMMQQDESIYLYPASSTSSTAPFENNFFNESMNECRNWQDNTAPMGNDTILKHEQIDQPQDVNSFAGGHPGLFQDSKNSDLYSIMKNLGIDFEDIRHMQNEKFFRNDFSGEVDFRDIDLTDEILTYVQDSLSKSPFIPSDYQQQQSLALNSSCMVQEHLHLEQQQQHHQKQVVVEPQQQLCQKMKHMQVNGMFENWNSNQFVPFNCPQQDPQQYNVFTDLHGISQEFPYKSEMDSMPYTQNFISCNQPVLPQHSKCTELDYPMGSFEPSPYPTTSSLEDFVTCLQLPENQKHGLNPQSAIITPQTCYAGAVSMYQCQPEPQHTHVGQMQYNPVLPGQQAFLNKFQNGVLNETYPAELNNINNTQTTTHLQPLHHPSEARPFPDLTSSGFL
Chain of AhR (baculovirus);Arnt (baculovirus) (P27540 whole entry, chain 2 of 2): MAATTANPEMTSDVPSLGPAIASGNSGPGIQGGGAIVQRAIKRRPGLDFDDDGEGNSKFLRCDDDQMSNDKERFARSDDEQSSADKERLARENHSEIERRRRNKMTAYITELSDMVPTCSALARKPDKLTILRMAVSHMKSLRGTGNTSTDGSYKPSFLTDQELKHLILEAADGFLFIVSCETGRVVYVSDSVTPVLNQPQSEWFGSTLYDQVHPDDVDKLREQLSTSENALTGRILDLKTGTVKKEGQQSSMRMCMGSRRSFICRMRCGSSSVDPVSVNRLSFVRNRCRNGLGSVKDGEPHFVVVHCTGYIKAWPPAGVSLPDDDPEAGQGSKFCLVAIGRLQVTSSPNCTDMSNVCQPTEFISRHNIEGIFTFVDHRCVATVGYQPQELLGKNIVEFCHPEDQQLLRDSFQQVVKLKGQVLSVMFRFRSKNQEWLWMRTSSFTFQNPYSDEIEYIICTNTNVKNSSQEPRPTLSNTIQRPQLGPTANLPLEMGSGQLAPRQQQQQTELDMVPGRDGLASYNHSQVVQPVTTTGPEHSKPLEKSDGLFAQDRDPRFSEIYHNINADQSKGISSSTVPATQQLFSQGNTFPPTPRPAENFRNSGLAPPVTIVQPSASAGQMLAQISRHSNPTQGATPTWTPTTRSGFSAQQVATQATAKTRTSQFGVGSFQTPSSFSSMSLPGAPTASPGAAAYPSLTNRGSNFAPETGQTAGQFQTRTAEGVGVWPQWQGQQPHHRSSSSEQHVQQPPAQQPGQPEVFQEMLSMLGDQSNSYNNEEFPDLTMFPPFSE

B1: DRE gel shift probe (OL439/OL440) (dsDNA)
DNA 1: TCGAGTAGATCACGCAATGGGCCCAGC
DNA 2: TCGAGCTGGGCCCATTGCGTGATCTAC
Take B1: the binding result is listed as “binds”.
